Key:
[1] = test system: EcSSB H55Y (Escherichia coli); test: optical tweezers; settings: 5 nM monomeric H55Y, k-b/kb, 12 pN, 50 mM Na+, 10 mM HEPES pH 7.5, room temperature, ssDNA at 12 pN unless stated, Mg2+ buffer adds 4 mM Mg2+, AFM 10 mM Na+, 10 mM Mg2+
[2] = test system: EcSSB WT (Escherichia coli); test: optical tweezers; settings: 12 pN, 50 mM Na+, 10 mM HEPES pH 7.5, room temperature, ssDNA at 12 pN unless stated, Mg2+ buffer adds 4 mM Mg2+, AFM 10 mM Na+, 10 mM Mg2+

With 8.1 knt ssDNA (pBACgus11) the Kd [1] was 0.1 nM, the Kd ([2]; EcSSB8 mode, fit of equilibrium fractions (Fig. 2C)) was 0.04 nM and the Kd ([2]; single-domain unwrapped EcSSB8 mode, from k-b/kb) was 0.08 nM.

— publication PMC7897507
